Experimental data as given in publication PMC8040518 (The Journal of Experimental Medicine, 2021).

Target: LGTV E protein (strain TP21) in C-prM-E–transfected HEK-293T cells (Langat virus strain TP21, UniProt Q9IG40)
Experiment: cell-based or functional assay

B1: POWV-80 mAb (antibody, V domains shown)
VH: EVKLVESEGGLVQPGSSMKVSCTASGFTFSHYYMAWVRQVPEKGLEWVANINYDGTSTYYLDSLKSRFIISRDNANNILYLQMSSLKSEDTAIYYCAREEGYGNPYPYWYFDVWGTGTTVTVSS
VL: QIVLTQSPAILSASPGEKVTMTCRASSSVSYMHWYQQKPGSSPKSWIYATSNLASGVPTRFSGSGSGTSYSLTISRVEAEDAATYYCQQRSSNPRTFGGGTKLEIK
  EC50 of neutralization of LGTV, FRNT in Vero cells: 10.4 µg/mL
